Measured values published in patent US20110280881A1, “NOVEL ANTI-HSP90 MONOCLONAL ANTIBODY” (RIKEN, priority 2010, published 2011).

Legend:
mouse HSP90α = experiment: Epitope mapping by ELISA with biotinylated overlapping peptides; type: binding; conditions: 12-amino-acid overlapping peptides, antibody 1 μg/ml, OD405
Description: Epitope mapping was performed using biotinylated overlapping peptides. The biotinylated overlapping peptides were prepared as described in a publicly known document (J. Immunological Methods 2002; 267:27-35). The epitope mapping was performed using a library of 12-amino-acid-long synthetic peptides each having an overlap of four amino acids.
After an avidin-coated plate was blocked with BSA, the above-described biotinylated overlapping peptides (1.25-3.75 mg/ml) were added. The plate was incubated at room temperature for 2 hours, after which it was washed with PBS/Tween 20 to remove the unreacted biotinylated overlapping peptides. Each anti-HSP90 monoclonal antibody (1 μg/ml) was added, and the plate was incubated at room temperature for 2 hours. The plate was washed with PBS/Tween 20 to remove the unreacted antibody, after which anti-mouse IgG-ALP (BD Pharmingen, used at a 2000-fold dilution) was added, and the plate was incubated at room temperature for 1 hour. The plate was washed with PBS/Tween 20 to remove the unreacted anti-mouse IgG-ALP, after which a pNPP solution (KPL, 1 mg/ml) was added, and the plate was incubated at room temperature for 3 hours to cause color development. After the color development, the plate was subjected to measurement of OD405 nm. […]

[1] = system: cell surface HSP90α and β; experiment: Immunoprecipitation of cell surface HSP90 from DC2.4 living cells; type: binding; conditions: DC2.4 living cells incubated with antibody on ice
Description: Mammalian HSP90 occurs in two isoforms: HSP90α and β. The following experiment was performed to determine whether not only HSP90α but also HSP90β is recognized by the antibody of the present invention. First, DC2.4 living cells were incubated along with an antibody on ice using 6H8, 2A6 or normal mouse IgG as a negative control. After being thoroughly washed to remove the unreacted antibody, the cells were lysed; the lysate was centrifuged at 10,000×g, and the resulting supernatant was incubated along with Protein G-Sepharose. The bound material was subjected to SDS-PAGE, after which blotting was performed using an anti-HSP90α antibody (SPS-771, Assay designs), an anti-HSP90β antibody (PB-118-P1, Neomarkers), or an antibody that recognizes both HSP90α and β (6B1C4, another antibody obtained in Example 1).

cell surface HSP90 [2] = experiment: FACS staining of cell surface HSP90 on DC2.4 cells not subjected to membrane permeabilization; type: binding; conditions: DC2.4 cells not permeabilized, biotinylated antibody 1 μg/ml, 4° C.
Description: (1) 1.1 mg of the biotinylation reagent EZ-Link (registered trademark) Sulfo-NHS-Biotin (21217, Takara Bio Inc.) was dissolved in 250 μl of pure water (concentration 10 mM). 2 of the solution of the biotinylation reagent was added to 100 of an antibody protein (1 mg/ml), and the reaction was allowed to proceed while cooling on ice for 2 hours. After the reaction, the unreacted biotin reagent was removed using Centricon[5k] (Millipore). The reaction product was adjusted to a final concentration of 1 mg/ml and stored at 4° C. (2) DC2.4 not subjected to membrane permeabilization (1×10^6 cells/0.1 ml), along with the biotinylated anti-HSP90 antibody (1 μg/ml), was incubated at 4° C. for 30 minutes. For negative control, DC2.4 was likewise incubated in an antibody-free PBS. (3) After the unreacted antibody was removed, DC2.4 (1×10^6 cells/0.1 ml), along with PE-cy5 streptavidin (eBioscience, 15-4317-82, used at a concentration of 0.5 μg/ml), was incubated at 4° C. for 30 minutes. (4) After the unreacted PE-cy5 streptavidin was removed, the cells were analyzed by FACS (Becton Dickinson).
The right panels of FIGS. 2A and B show FACS data (histograms) for DC2.4 cells stained with each monoclonal antibody in the same manner as Example 2.

cell surface HSP90 [3] = experiment: FACS of 6H8-OVA bound to DC2.4 and DC2.4L cells with anti-OVA antibody; type: binding
Description: Furthermore, using DC2.4L cells lacking cell surface HSP90 (a line detectable with 6H8 antibody, and showing decreased expression levels of cell surface HSP90 and H-2K^b; obtained during cultivation of DC2.4 and established by passage culture), the specificity of 6H8-OVA for cell surface HSP90 was examined. DC2.4 and DC2.4L cells were incubated along with the fractions 15 to 19 containing 6H8-OVA (mixture) (30 μg/ml), after which the cells were stained with the biotinylated anti-OVA monoclonal antibody and PE-Cy5 streptavidin, and analyzed by FACS.

OT-II CD4+ T cells [4] = experiment: In vitro antigen presentation assay, DC2.4 cells with OT-II CD4+ T cells, IFNγ; type: cell-based, mouse; conditions: DC2.4 pulsed with series of doses, IFNγ secreted
Description: Next, DC2.4 cells were pulsed with a series of doses of 6H8-OVA (fractions 15 to 19) and free OVA (fraction 33) and incubated along with OT-I CD8^+ T cells and OT-II CD4^+ T cells [splenocytes of an OT-II mouse were recovered, and CD11b-positive cells were removed according to a standard protocol using BD IMag anti mouse CD11b magnetic particles DM (BD Biosciences Pharmingen, 558013); next, CD4-positive cells were purified according to a standard protocol using BD IMag anti mouse CD4 particles DM (BD Biosciences Pharmingen, 551539); the cells obtained were used as the OT-II CD4^+ T cells], and the amount of IFNγ secreted from T cells was measured, whereby the cross-presentation potential of 6H8-OVA was evaluated.

OT-II CD4+ T cells [5] = experiment: In vivo division of OT-II CD4+ T cells; parameters: species or system mouse; conditions: series of doses injected into recipient mice

B1: 6H8: anti-HSP90 monoclonal antibody produced by hybridoma FERM BP-11222; epitope … (antibody)
VH: QVQLQQSGPELVKPGASVRISCKASGYTFTSYYIHWVKQRPGQGLEWIGWIYPGNVNTKYNEKFKGKATLTADKSSSTAYMQLSSLTSEDSAVYFCARYGNYPFAYWGQGTLVTVSAAKTTAPSVYPLAPVCGDTTGSSVTLGCLVKGYF
VL: DVVMTQTPLSLPVSLGDQASISCRSSQSLVHSNGNTYLHWYLQKPGQSPKLLIYKVSNRFSGVPDRFSGSGSGTDFTLKISRVEAEDLGVYFCSQSTHVPPTFGGGTKLEIKRADAAPTVSIFPPSSEQLTSGGASVVCFLNNFYPKDINVKWKIDGS
In the case of B1, the “epitope region mapped (amino acid numbers)” value (mouse HSP90α) is reported as “HSP90α713-724”, the “recognition of cell surface HSP90α and β on living cells (immunoprecipitation)” value [1] is reported as “recognized” and the “recognition of cell surface HSP90 (FACS)” value (cell surface HSP90 [2]) is reported as “recognized cell surface HSP90 with high sensitivity”.

B2: 6H8-OVA: high molecular weight conjugate of the 6H8 antibody and maleimide-activated OVA (conjugate)
VH: QVQLQQSGPELVKPGASVRISCKASGYTFTSYYIHWVKQRPGQGLEWIGWIYPGNVNTKYNEKFKGKATLTADKSSSTAYMQLSSLTSEDSAVYFCARYGNYPFAYWGQGTLVTVSAAKTTAPSVYPLAPVCGDTTGSSVTLGCLVKGYF
VL: DVVMTQTPLSLPVSLGDQASISCRSSQSLVHSNGNTYLHWYLQKPGQSPKLLIYKVSNRFSGVPDRFSGSGSGTDFTLKISRVEAEDLGVYFCSQSTHVPPTFGGGTKLEIKRADAAPTVSIFPPSSEQLTSGGASVVCFLNNFYPKDINVKWKIDGS
chain: GSIGAASMEFCFDVFKELKVHHANENIFYCPIAIMSALAMVYLGAKDSTRTQINKVVRFDKLPGFGDSIEAQCGTSVNVHSSLRDILNQITKPNDVYSFSLASRLYAEERYPILPEYLQCVKELYRGGLEPINFQTAADQARELINSWVESQTNGIIRNVLQPSSVDSQTAMVLVNAIVFKGLWEKAFKDEDTQAMPFRVTEQESKPVQMMYQIGLFRVASMASEKMKILELPFASGTMSMLVLLPDEVSGLEQLESIINFEKLTEWTSSNVMEERKIKVYLPRMKMEEKYNLTSVLMAMGITDVFSSSANLSGISSAESLKISQAVHAAHAEINEAGREVVGSAEAGVDAASVSEEFRADHPFLFCIKHIATNAVLFFGRCVSP
B2 was tested, and the “staining of DC2.4L cells with anti-OVA antibody after incubation with conjugate” value (cell surface HSP90 [3]; DC2.4L cells lacking cell surface HSP90, 30 μg/ml) was “not recognized by the OVA monoclonal antibody”, the “staining of DC2.4 cells with anti-OVA antibody after incubation with conjugate” value (cell surface HSP90 [3]; DC2.4 cells expressing cell surface HSP90, 30 μg/ml) was “recognized by the anti-OVA monoclonal antibody” and the “antigen presentation to OT-II CD4+ T cells” value (OT-II CD4+ T cells [4]) was “weak, although it was better than free OVA”. For the same molecule, the “promotion of the division of OT-II CD4+ T cells” value (OT-II CD4+ T cells [5]) was “required a higher dose”.
